One substance from article PMC3281069 can be followed below.

Broadly, the stoichiometry N is a count of units in the complex or per binding partner.

This assay concerns the target E2 wild type, E2 subunit (acyltransferase component) of the pyruvate dehydrogenase complex of Geobacillus stearothermophilus (Geobacillus stearothermophilus) (UniProt P11961). Briefly: SEC; E2wt on a Superdex200 gel filtration column in Solubility Buffer 2.2 (1x PBS, 50 mM L-glutamine, 50 mM NaCl, 250 mM L-arginine). (In gel filtration, larger molecules generally elute earlier.)

“E2 wild type, E2 subunit (acyltransferase component) of the pyruvate dehydrogenase complex of Geobacillus stearothermophilus (from UniProt P11961 1-428) (natural protein)” yielded a stoichiometry N of 60.
